# Biological target: RBD protein of SARS-COV-1 (SARS-CoV-1, UniProt P59594 306-527)
# Experiment: ELISA ('the same binding assay')
binder,measurement,value
FSR16m (designed binder) MGMEQKLISEEDLDGYIPEAPRDGQAYVRKDGEWVLLSTFLGGGGSLQGGGGSLQGSDLGKKLLEAARAGQDDEVRILMANGADVNALDLFGVTPLHLAAERGHLEIVEVLLKNGADVNAGDAFGRTPLHLAALGGHLEIVEVLLKNGADVNACDLYGVTPLHLAAGLGHLEIVEVLLKNGADVNAQDKFGKTAFDISIDNGNEDLAEILQSSSKLAAALEHHHHHH,binding result,no binding

# Reference: US20250179152A1 (TEXAS A AND M UNIVERSITY SYSTEM, published 2025)
